# Data from the nanobody polyreactivity screen of Harvey et al. (2022).
# Experiment: yeast display, Sf9 membrane polyspecificity reagent, FACS + sequencing; frameworks hold sequencing errors
# How it was run: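 After 36–48 hours of galactose induction, yeast (Saccharomyces cerevisiae BJ5465) displaying a synthetic nanobody library were stained at 4 °C for 1 hour with 10% biotinylated, detergent-solubilized Sf9 membrane reagent. Streptavidin microbeads enriched the stained cells before FACS sorting into low and high (top ~1%) gates on anti-HA and streptavidin fluorescence. Each clone's polyreactivity label reflects its gate of origin.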
row,Sequence,polyreactivity (PSR sort gate)
1,QVQHVESRGGLVQAGGSLRLSCAASGFTFYTNVMGWSRQAPGKERELVAAINSGGSTNYADSVKGRFTISRDNAKNTVYLQMNSLKAEDTAVYYCNKRGTEIGYDYWGQGTQVTVSS,low polyreactivity
2,QVQHVESRGGLVQAGGSLRLSCAASGSTFCRYAMGWYRKAPGKEREFVARITYSSGRTYYADSVKGRFTISRDNAKNTVYLQMNSLKPDDTAVYYCAAGDYTRGPCGDYWGQGTQVTVSS,high polyreactivity
3,QVQHVESRGGLVQSGGSLRLSCAASGSIFSYYDLGWYRQAPGKERELVASISSGGSTYYADSVKGRFTISRDNAKNTVYLQMNSLKPEDTAVYYCAAVSRWLYWEDDYWGQGTQVTVSS,low polyreactivity
4,QVQHVESVGGIVQAGGSLRLICAASGFIFVGYAMGWYRQAPGKERELVAAISTSGGRTYYADSVKGRFTISRDNAKNTVYLQLNSLKPEDTAVYYCAAKRPGCIQYSYYYWGQGTQVTVSS,high polyreactivity
5,QVQHVESVGGLVQAGGSLRLSCAASASIIYANTMGWYRQAPGKEREFVATITDSGAIKYYADSVKGRFTISRDNAKNTVYLQMNSLKPEDTAVYYCNADSIYSARGWLYGYWGQGTQVTVSS,low polyreactivity
6,QVQHVQSGGGLVQAGGSLRLSCAASGSTFPGYAMGWYRQDPGKEREFVAAISTSGGRTYYADSVKGRFTISRDNAKNTVYVQMNSLKPEDTAVYFCNADRYSQYSHSRYDYWGQGTQVTVSS,high polyreactivity
7,QVQIEESGGGLVQAGGSHRLSCAASGRTFGGNAMGRYRQAPRKERELVAAISISGGSNTYYADSVKGRFTISRDTGKNTVYLQMNSLKPEDTAVYFCAARSTVYISSDYWGQGTQVTVSS,low polyreactivity
8,QVQIEESGGGLVQAGGSLRLICAASGIIIMDYDMGWSRQAPGKERELVAAISRSGGSTYYADSVKGRFKISRDNAKNSVYLQMNSLKPEDTAVYYCNADNVDYPSAPLNPGKGIYYWGQGTQVTVSS,low polyreactivity
9,QVQIEESGGGLVQAGGSLRLSCAASASIFYPNAMGWYRQAPVKEREFVAAITRNGDSTYYADSVKGRFTISRDNAKNTVYLQMNSLKPEDTAVYYCNTDGQGIYSYNKDLSWISGYDYWGQGTQVTVSS,low polyreactivity
10,QVQIEESGGGLVQAGGSLRLSCAASGITFYWYARGWYRQAPVTERELVAAITRSGSSTYYADSVKGRFTISRDNAKNTVYLQMYSLKPEDTAVDYCAALPYKPYYDAYDYWGQGTQVTVSS,high polyreactivity
11,QVQIEESGGGLVQAGGSLRLSCAASGRIFARNALGWYRQSPGTEREFVAAITHSGGNTYYADSVKGRFTISRDNAKNSVYLQMNSLKPEDTAVYYCAKDYRSTKYDYWGQGTQVTVSS,low polyreactivity
12,QVQIGESGGGLVQAGGSLRLSCAASGSIIVGYAMGWYRQAPGKEREVVAAISKRGTSTYYADSVKGRFTISRDNAKNTVYLQMNSLKPEETAVYDCNALDLVNHGWTERLDQDYYYWGQGTQVTVSS,high polyreactivity
13,QVQIGESGGGLVQAGGSRRLSCAASGLTFYLYAMGWYRQAPGKERELVAAITTSGGSTYYADSVKGRFTISRDNAKNTVYLQMNSLKPEDTAVYDCATQGAIRGYGYWGQGTQVTVSS,high polyreactivity
14,QVQIGQSGGGLVQAGGSLRLSCAASGRIIWSNAMGWNRQAPGKERELVAAIRNTGSTNYADSVKGRFTISRDNAKNTVYLQMNSLKPEDTEVYYCAADRATYCTYAYGYWGQGTQVTVSS,high polyreactivity
15,QVQILESGGGLVQAGGSLRLSCAASGRIFGGYAMGWYRQAPGKERELVAAIRWRGGRTYYADSVKGRFTISRDNAKNTVYLQMNSLKPEDTAVYYCAADYSFTGHRYTYGYWGQGTQVTVSS,high polyreactivity
16,QVQILESGVGLVQPGGSLRLICAASGITLQFYALGWYRKATGKEAELVAAISISGGRTYYADSVKGRFTISRDNAKNTFYLQMNSLKPEDTAVYYCAAYLQRAYRYGYWGQGTQVTVSS,high polyreactivity
17,QVQILETGGGLVQAGGSLSLSCAASGSIFYSNAMGWYRQAPGKESEIVAAISAGGGSTYYADSVKGRFTISRDNAINTVYLQMNSLKPEDTAVYYCAAQPYKIIYPYDYWGQGTQVTVSS,low polyreactivity
18,QVQIVDSGGGLVQAGGSLRLSCAASGRTFNYYAKGWYRQAPGKERQLVAAISKSGGSTYYADSVKGRFTISRDNEKNTVYLQMNSLKPEETAVYYCAALTTHAPHSYNYWGQGTQVTVSS,low polyreactivity
19,QVQIVESGAGLVQAGGSLRLSCAPSGRIFVTNAMGWYRQSPGKERELGAAITSGGSTYYADSVKGRFTISRDNAKNNVYLQMNSLKPEDTAVFYCARPVFSQRYVTTRYDYWGQGTQVTVSS,low polyreactivity
20,QVQIVESGARLVQAGGSLRLSCAASGRTFYAYAMGWYTQAPGKDREYFASIRLRGGSTYYADSVKGRFTISRDNAKNTVYLQMHSLKPEDTAVYYGNAFYGGSSSYWYYSWGQGTQVTVSS,high polyreactivity

row,Sequence,polyreactivity (PSR sort gate)
1,QVQIVESGGGIVQAGGSLRLSCAASGFIFVFNAMGWNRKAPGKERELVAAINGGDNTNYADSVKGRFTISRDNAKNTVYLQINSLKPEDTAVYYCAAEGEDSMWTGYDYDYWGQGTQVTVSS,low polyreactivity
2,QVQIVESGGGIVQAGGSLRLSCAASGRTLQTYVMGWYRQSPGKEREWVAAITRGGGSTYYADSVKGRFTISRDNAKNTVYLQMNSLKPEDTAVYYCAASALRFNSSFSHWYNYWGQGTQVTVSS,high polyreactivity
3,QVQIVESGGGIVQAGVSLRLICAASGFTFIDNTMGWYRQAPGKERELVAAISSDGRTNYADSVKGRFTISRDNAKNNVYLQKNSLKPEYTAVYYCASEDYYWYVTGDLYHTAVYYWGQGTQVTVSS,low polyreactivity
4,QVQIVESGGGLFQAGGSLRLSCAASGRIFDPYSMGWYRQAPGKERELVASISWSGGRTYYADSVKGRFTISRDNAKNTVYLQMNSLKPEDTAVYYCARRFYKGTSKTNLFDFWGQVTQVTVSS,high polyreactivity
5,QVQIVESGGGLLQAGGSLRLSCAASGRIFRRNAMGWYRQATGKERELVAAISKSGGSTYYADSVKGRFTISRDNAKNTVYLQMNSLKPEDTAVYYCAAEYSDRYDYWGQGTQVTVSS,high polyreactivity
6,QVQIVESGGGLVDAGGSLRLSCAASGRTFPPYAMGWYRQAPGKERELVAAISGSGASTYYADSVKGRFTISRDNAKNTVKLQWISQKPEDTAVYSWARYRGYWGRYYGVHYGYWGQGTQVTVSS,high polyreactivity
7,QVQIVESGGGLVQAAGSLRLSCPASGRIFSDYAMGWYRQAPGKERELVAVITRGGDNTHYADSVKGRFTISRDNAKNTVYFQMNSLKPEDTAVYYCAAGFVYFRLRRYFWRDYWGQGTQVTVSS,low polyreactivity
8,QVQIVESGGGLVQAGASLRLSCAASGLIFPQKVMGWYIQAPGNERVLVAAISSGTITNYADSVKGRFTISRDNAKNSVYLQMNSLKPEDTADYFCAAEEDKKTFDYWGQGTQVTVSS,low polyreactivity
9,QVQIVESGGGLVQAGATLRLSCDASGITIEGYAMGWYRQAPGKERELVAAIRSSGTSTYYADSVKGRFTITRDFAKNTVYLQMNSLKPEDTAVYYCNRARSSSRYDYWGQGTQVTVSS,low polyreactivity
10,QVQIVESGGGLVQAGCSLRISCAASGRTFYRYAMGWYRQAPGKEREFVAAISWRGGSTRYADSVKGRFTISRDNAKNTVYLQLNSLKPEVTAVYYCNADPQRSVSYTDQYRPVWYGYWGQGTQVTVSS,high polyreactivity
11,QVQIVESGGGLVQAGGILRLSCAASGNTFGYYAMGWYRQAPGKEWELVAAISRGGGSTYYADSVKGRFTISRDNAKNTVYLQMNRLKPEDTAVYYCARRYRLSTSWSYRVGYWGQGTQVTVSS,high polyreactivity
12,QVQIVESGGGLVQAGGSLRFSCADSGFTFYSYAIVWYRQAPGKERELVAAISWSGGSTYYADSVKGRFTISRDNAKNTVYLQMNSLKPEDTAVYFCNAPYIGEHYYWGQGTQVTVSS,high polyreactivity
13,QVQIVESGGGLVQAGGSLRISCAASGLIYSSYGMGWYRQAPGKERELVAAISSGGSTYYADSVKGRFSISRDNAKNTVYLQKKSLKPEDTAVYYCADGVLYPYWYSTYYPDCQYYYWGHGTQVTVSS,low polyreactivity
14,QVQIVESGGGLVQAGGSLRISCAASGRTFSWNPMGWYRQAPGKERELVAGITGRGRSTYYADSVKGRFTISRDNAKLTVYLQMNSLTPEDTAVYYCAADSYRSSSPYGYWGQGTQVTVSS,high polyreactivity
15,QVQIVESGGGLVQAGGSLRISCSASGRTLRSYAMGWYRHAPGKERELVAAISRSGGSTNYADSVKGRFTISHDNAKNTVYLQMNSLKPEETAVYYCNTYSTSWKMDYWGQGTKVTVSS,high polyreactivity
16,QVQIVESGGGLVQAGGSLRLSCAASGFIFGANAMGWYRQAPGKEREFVAAISSSGGRYELRRSVKGRFTISRDKAKNTVYLQMNSLKPEDTAVYYCATPYPTGRPRHYYWGQGTQVTVSS,high polyreactivity
17,QVQIVESGGGLVQAGGSLRLSCAASGFTIPRYAMGWYRQAPGKERELVAAISRAGRTYYADSVKGRFTISRDNAKNTVYLLMTSLKPEDTAVYYCNSQYLKPGDYWGHGTQVTVSS,high polyreactivity
18,QVQIVESGGGLVQAGGSLRLSCAASGFTSQFYAMGWYRQAPGKEMELVAAISSGSSTYYADSVKGRFTSSRDNAKNTVYLQMNSLKPEDTAVYYCATTHKTLRRYDSWGQGTKVTVSS,low polyreactivity
19,QVQIVESGGGLVQAGGSLRLSCAASGIIFYRYAMGWSRQAPGKERELVAAITWSGVSTSYADSVKGRFTISRDNAKNTVYLQMNSLKPEVTAVYDCNKDPGTLYGDMDSWGQGTQVSVSS,low polyreactivity
20,QVQIVESGGGLVQAGGSLRLSCAASGITLSYNAMGWYRPATEKDRELVAGISYSGGRTYYADSVKGRFTISRDNAKNTVYLQMYSLKPEVTAVYYCATDLYISFRYGGYFWGQGTQVTVSS,high polyreactivity
